In PMC12098916, “Modelling POLG mutations in mice unravels a critical role of POLγΒ in regulating phenotypic severity”:
Blank lines part the entries; values can stand above or below the molecule they belong to.

What was measured:
[1] = target: mouse DNA polymerase γ catalytic subunit, wild type (mPolγA^WT) (mouse) (UniProt P54099); assay: thermal shift assay (thermofluor, SYPRO Orange); 0.5 µM PolγA with or without 0.75 µM PolγB (1:1.5), mixed on ice for 5 min; 20 mM Tris pH 8, 1 mM DTT, final NaCl 175 ± 50 mM; 4 to 95 °C in steps of 0.5 °C
[2] = target: mouse DNA polymerase γ catalytic subunit, Y933C variant (mPolγA^Y933C) (mouse) (UniProt P54099); assay: as above
[3] = target: T1, mouse PolγA (mPolγA WT);mouse PolγB (mPolγB) (Mus musculus;Mus musculus, UniProt P54099;Q9QZM2 26-1218;1-459, |); assay: cryo-EM; R (replication) conformer; 10 mM Ca2+, 0.2 mM dCTP; EMSA: 25 mM Tris-HCl pH 8.0, ~30 mM NaCl, 1 mM TCEP, 0.1 mg/ml BSA, 10% glycerol, 10 uM ddCTP, 0.5 nM DNA, 6.6 nM POLγB dimer, ice 10 min then room temperature; details: protein: recombinant;recombinant; tags: 6xHis;6xHis; copies: 1;2; 15 nt 5' overhang on strand 1; single mismatch at primer 3' end
[4] = target: mouse PolγA (mPolγA WT);human POLγB (hPOLγB) (Mus musculus;Homo sapiens, UniProt P54099;Q9UHN1 26-1218;26-485, |); assay: cryo-EM; chimera mAhB, human-like E conformer; 10 mM Ca2+, 0.2 mM dCTP; EMSA: 25 mM Tris-HCl pH 8.0, ~30 mM NaCl, 1 mM TCEP, 0.1 mg/ml BSA, 10% glycerol, 10 uM ddCTP, 0.5 nM DNA, 6.6 nM POLγB dimer, ice 10 min then room temperature; details: protein: recombinant;recombinant; tags: 6xHis;6xHis; copies: 1;2; 15 nt 5' overhang on strand 1; single mismatch at primer 3' end
[5] = target: T1, mouse PolγA (mPolγA WT);mouse PolγB …; assay: EMSA; 10 uM ddCTP; value in Supp Fig 13f not in material; marginally weaker than human; EMSA: 25 mM Tris-HCl pH 8.0, ~30 mM NaCl, 1 mM TCEP, 0.1 mg/ml BSA, 10% glycerol, 10 uM ddCTP, 0.5 nM DNA, 6.6 nM POLγB dimer, ice 10 min then room temperature; details: protein: recombinant;recombinant; tags: 6xHis;6xHis; copies: 1;2; label: 32P 5' on 21-mer; 21 bp, 15 nt 5' overhang on strand 1
[6] = target: human POLγA (hPOLγA WT);human POLγB (hPOLγB) (Homo sapiens;Homo sapiens, UniProt P54098;Q9UHN1 26-1239;26-485, |); assay: EMSA; 10 uM ddCTP; value in Supp Fig 13f not in material; EMSA: 25 mM Tris-HCl pH 8.0, ~30 mM NaCl, 1 mM TCEP, 0.1 mg/ml BSA, 10% glycerol, 10 uM ddCTP, 0.5 nM DNA, 6.6 nM POLγB dimer, ice 10 min then room temperature; details: protein: recombinant;recombinant; tags: 6xHis;6xHis; copies: 1;2; label: 32P 5' on 21-mer; 21 bp, 15 nt 5' overhang on strand 1
Chain of human POLγA (hPOLγA WT);human POLγB (hPOLγB) (P54098 26-1239, chain 1 of 2): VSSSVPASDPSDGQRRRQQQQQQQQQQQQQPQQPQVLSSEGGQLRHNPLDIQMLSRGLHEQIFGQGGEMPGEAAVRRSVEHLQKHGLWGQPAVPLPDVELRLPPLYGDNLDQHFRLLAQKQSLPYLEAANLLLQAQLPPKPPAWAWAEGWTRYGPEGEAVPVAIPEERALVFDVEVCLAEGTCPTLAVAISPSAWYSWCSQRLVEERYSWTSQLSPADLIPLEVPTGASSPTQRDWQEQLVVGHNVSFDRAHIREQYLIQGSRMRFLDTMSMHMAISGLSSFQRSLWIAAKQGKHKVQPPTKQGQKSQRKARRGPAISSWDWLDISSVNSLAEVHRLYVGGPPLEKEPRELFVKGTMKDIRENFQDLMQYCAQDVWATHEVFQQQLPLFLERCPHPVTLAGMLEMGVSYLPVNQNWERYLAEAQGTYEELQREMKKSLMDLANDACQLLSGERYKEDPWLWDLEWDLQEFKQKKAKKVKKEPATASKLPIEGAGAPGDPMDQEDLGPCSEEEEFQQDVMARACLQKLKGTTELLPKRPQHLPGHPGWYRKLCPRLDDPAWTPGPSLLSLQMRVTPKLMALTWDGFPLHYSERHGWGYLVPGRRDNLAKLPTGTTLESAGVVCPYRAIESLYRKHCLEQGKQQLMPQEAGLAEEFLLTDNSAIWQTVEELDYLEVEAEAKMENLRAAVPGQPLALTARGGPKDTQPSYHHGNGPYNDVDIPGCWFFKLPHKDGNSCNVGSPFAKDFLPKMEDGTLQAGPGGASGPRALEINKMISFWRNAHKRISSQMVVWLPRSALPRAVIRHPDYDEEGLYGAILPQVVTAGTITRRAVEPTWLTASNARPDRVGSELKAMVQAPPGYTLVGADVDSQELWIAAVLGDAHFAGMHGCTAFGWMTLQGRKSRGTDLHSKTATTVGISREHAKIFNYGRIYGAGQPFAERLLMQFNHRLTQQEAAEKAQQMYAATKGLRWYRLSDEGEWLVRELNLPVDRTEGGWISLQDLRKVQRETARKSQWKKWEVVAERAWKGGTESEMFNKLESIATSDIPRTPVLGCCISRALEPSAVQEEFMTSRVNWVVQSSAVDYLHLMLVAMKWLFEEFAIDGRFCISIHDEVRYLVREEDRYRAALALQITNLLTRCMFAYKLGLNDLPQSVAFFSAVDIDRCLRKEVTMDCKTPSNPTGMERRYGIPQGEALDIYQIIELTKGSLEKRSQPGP
Chain of human POLγA (hPOLγA WT);human POLγB (hPOLγB) (Q9UHN1 26-485, chain 2 of 2): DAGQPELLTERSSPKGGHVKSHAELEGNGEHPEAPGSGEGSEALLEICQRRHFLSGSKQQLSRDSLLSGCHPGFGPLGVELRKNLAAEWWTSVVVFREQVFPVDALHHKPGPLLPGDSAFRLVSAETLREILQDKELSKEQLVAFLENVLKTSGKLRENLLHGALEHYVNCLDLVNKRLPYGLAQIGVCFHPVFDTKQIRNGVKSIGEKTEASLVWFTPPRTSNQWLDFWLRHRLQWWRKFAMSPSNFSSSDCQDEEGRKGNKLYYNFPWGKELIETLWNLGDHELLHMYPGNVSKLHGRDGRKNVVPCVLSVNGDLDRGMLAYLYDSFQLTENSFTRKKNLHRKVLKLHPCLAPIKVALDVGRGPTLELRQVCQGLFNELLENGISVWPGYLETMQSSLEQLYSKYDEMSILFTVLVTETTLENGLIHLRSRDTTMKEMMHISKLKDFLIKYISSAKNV

T1 sequence (P54099 26-1218, chain 1 of 2): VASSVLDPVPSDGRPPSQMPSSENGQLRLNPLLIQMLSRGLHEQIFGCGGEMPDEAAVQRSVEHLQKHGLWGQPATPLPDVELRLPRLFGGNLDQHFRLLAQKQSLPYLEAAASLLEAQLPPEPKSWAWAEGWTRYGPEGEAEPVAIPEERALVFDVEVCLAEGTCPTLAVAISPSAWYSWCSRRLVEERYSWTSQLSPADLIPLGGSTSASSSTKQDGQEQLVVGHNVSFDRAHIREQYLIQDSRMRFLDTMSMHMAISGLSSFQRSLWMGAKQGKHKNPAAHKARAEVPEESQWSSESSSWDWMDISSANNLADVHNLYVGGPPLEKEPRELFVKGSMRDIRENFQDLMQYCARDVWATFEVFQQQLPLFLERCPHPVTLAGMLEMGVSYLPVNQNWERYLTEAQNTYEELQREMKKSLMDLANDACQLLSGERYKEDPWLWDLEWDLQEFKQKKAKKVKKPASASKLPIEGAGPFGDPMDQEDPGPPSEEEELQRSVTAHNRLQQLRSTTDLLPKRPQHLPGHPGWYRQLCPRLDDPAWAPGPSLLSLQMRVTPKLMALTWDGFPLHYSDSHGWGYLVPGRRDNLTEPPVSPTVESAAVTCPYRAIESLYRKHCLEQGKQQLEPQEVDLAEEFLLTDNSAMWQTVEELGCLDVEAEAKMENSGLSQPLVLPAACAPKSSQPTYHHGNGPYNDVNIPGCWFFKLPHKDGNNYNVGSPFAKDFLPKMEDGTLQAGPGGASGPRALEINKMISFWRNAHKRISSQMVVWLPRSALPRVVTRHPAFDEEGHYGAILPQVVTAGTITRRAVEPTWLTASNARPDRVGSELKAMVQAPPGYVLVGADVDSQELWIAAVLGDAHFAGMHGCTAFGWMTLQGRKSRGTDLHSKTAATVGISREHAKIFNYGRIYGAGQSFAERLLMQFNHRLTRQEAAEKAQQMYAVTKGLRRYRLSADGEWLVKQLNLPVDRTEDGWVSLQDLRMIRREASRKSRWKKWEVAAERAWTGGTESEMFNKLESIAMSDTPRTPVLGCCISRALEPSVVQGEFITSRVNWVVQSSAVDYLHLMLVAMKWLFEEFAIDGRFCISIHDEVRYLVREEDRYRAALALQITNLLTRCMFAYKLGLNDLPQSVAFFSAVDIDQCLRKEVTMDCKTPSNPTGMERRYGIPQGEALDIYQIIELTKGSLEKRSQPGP
T1 sequence (Q9QZM2 whole entry, chain 2 of 2): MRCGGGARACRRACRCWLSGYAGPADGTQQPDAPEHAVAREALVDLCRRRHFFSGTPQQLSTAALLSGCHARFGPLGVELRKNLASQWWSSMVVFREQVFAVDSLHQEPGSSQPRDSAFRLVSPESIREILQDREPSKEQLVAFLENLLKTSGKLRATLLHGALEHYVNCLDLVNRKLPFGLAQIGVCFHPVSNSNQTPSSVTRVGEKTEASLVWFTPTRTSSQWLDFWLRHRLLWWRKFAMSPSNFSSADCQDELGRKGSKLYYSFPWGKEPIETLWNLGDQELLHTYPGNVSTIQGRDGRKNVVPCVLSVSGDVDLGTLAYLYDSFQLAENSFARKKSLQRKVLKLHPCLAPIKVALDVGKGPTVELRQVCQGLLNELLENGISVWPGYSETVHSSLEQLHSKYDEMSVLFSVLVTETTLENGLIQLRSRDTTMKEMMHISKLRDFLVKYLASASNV
Chain of mouse DNA polymerase γ catalytic subunit, wild type (mPolγA^WT) (mouse) (P54099 whole entry): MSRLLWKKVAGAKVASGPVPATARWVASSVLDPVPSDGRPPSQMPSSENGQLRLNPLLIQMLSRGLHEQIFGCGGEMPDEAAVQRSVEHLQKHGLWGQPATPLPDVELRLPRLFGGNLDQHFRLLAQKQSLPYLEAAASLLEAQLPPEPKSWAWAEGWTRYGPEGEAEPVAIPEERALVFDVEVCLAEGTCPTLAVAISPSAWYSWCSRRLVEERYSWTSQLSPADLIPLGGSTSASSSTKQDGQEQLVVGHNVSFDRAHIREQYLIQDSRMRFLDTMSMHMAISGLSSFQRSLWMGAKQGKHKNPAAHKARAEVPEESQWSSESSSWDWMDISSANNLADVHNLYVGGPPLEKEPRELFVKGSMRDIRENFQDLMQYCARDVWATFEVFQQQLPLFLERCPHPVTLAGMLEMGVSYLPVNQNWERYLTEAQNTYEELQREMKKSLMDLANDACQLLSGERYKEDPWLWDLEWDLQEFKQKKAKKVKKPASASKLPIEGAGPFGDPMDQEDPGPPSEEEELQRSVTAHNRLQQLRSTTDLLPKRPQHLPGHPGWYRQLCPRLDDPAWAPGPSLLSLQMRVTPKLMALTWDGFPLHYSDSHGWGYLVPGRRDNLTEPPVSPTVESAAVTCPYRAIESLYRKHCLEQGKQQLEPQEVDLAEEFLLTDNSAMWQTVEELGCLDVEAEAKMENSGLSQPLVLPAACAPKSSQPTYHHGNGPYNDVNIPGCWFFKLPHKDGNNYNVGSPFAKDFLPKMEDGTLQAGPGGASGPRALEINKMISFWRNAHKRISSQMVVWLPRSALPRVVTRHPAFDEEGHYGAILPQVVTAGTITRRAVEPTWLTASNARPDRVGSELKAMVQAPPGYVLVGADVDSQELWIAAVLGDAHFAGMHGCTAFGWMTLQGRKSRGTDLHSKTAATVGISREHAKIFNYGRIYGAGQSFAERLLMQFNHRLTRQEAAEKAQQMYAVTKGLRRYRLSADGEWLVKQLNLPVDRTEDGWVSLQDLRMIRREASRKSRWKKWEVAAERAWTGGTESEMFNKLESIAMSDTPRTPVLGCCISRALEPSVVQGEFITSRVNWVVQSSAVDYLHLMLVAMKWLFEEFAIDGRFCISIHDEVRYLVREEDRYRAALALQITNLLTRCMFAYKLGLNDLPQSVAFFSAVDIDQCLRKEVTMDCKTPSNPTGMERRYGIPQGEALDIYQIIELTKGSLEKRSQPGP
Chain of mouse DNA polymerase γ catalytic subunit, Y933C variant (mPolγA^Y933C) (mouse) (P54099 whole entry Y934C): as the sequence (P54099 whole entry) above, with Y934C counted along it
Chain of mouse PolγA (mPolγA WT);human POLγB (hPOLγB) (P54099 26-1218, chain 1 of 2): as the sequence (P54099 26-1218, chain 1 of 2) above
Chain of mouse PolγA (mPolγA WT);human POLγB (hPOLγB) (Q9UHN1 26-485, chain 2 of 2): as the sequence (Q9UHN1 26-485, chain 2 of 2) above

increase in Tm of PolγA in complex with PolγB [1]: 9 °C
Molecule: mouse DNA polymerase γ accessory subunit, wild type (mPolγB^WT)

increase in Tm of PolγA in complex with PolγB [2]: 9 °C
Molecule: mouse DNA polymerase γ accessory subunit, wild type (mPolγB^WT) (natural protein)

B1: cryo-EM primer-template 40/25 with 3' mismatch (dsDNA)
DNA 1: TTTTTTTTTTATCCGGGCTCCTCTAGACTCGACCGCATGC
DNA 2: GCATGCGGTCGAGTCTAGAGGAGCT
binding result [3]: binds
binding result [4]: binds

B2: EMSA primer-template 36/21 (dsDNA)
DNA 1: TTTTTTTTTTATCCGGGCTCCTCTAGACTCGACCGC
DNA 2: GCGGTCGAGTCTAGAGGAGCC
binding result [5]: binds
binding result [6]: binds
